# Assay results taken from article PMC12104086, “Identification of a multiple DAMP scavenger mimicking the DAMP-binding site of TLR4 to ameliorate lethal sepsis” (Frontiers in Immunology, 2025).
# T1: recombinant mouse cold-inducible RNA-binding protein (mouse, UniProt P60824 1-172)
# T1 construct: also called rmCIRP; eCIRP
# T1 sequence (looked up): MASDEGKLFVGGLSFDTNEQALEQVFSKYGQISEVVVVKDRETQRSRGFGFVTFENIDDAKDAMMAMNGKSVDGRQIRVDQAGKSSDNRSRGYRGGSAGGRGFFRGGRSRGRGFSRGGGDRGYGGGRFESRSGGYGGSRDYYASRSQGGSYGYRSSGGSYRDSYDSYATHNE
# T2: recombinant human high mobility group box 1 (human, UniProt P09429 1-215)
# T2 construct: human HMGB1, recombinant, bought; see the vendor's sheet; also called rhHMGB1; HMGB1; source: bought: R&D System (Cat. No. 1690-HMB-050)
# T2 sequence (looked up): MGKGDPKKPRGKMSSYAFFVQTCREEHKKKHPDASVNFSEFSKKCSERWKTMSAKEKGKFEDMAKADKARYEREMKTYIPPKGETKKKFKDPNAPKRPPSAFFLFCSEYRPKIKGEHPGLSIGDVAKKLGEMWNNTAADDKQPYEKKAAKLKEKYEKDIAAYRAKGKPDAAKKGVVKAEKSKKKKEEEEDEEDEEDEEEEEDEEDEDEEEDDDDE
# B1: opsonic peptide 18 (peptide)
# peptide: GNFNSSNIMKTCLQNRGD
# notes: also called OP18; source: synthetic peptide (GenScript)
# How the values were obtained:
# [1] = target: T1, recombinant mouse cold-inducible …; assay: SPR; OpenSPR (Nicoya); OP18 (10 µg/mL in 10 mM acetate pH 5) immobilised on channel 2, channel 1 as reference; analytes eCIRP 31.3-2,000 nM, HMGB1 10-450 nM, αvβ3 integrin 10-100 nM, histone H3 22.5-270 nM in HBST (10 mM HEPES, 150 mM NaCl, 0.005% P20, 5 mM EDTA, pH 7.4); 40 µL/min, 20°C; global fit 1:1; conditions: both partners purified
# [2] = target: T2, recombinant human high mobility group …; assay: as above; conditions: both partners purified
binder,measurement,setting,value
B1,binding result,[1],binds
same,binding result,[2],binds
